# Source: patent publication US20060058505A1, “Nucleic acid and polypeptide linked to breast cancer and uses therefor” (priority 2001, published 2006)
# T1: His-tagged N-terminal SH3 domain containing region of rasGAP^120 (Homo sapiens, UniProt P20936)
# T1 construct: containing amino acids 1-356 which includes the full SH3 domain of rasGAP^120; made in house; host or cells: E. coli (DH5), IPTG induction; used as bacterial lysate
# T1 sequence (P20936 1-356): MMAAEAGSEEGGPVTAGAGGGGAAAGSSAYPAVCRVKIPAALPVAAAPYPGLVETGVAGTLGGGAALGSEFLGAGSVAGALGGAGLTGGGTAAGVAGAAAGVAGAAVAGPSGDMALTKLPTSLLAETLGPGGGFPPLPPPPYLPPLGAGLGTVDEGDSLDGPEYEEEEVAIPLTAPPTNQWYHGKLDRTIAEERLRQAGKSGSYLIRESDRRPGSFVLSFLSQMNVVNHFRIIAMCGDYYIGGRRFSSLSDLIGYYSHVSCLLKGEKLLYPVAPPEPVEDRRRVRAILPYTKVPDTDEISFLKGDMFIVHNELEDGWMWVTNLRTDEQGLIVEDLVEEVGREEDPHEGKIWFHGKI
# B1: δ-2a-N146: GST fusion of truncated G3BP-2a peptide including the N-terminal amino acids 1 to 146 (NTF2-like domain) (protein, UniProt Q9UN86 1-146, looked up, fragment)
# chain: MVMEKPSPLLVGREFVRQYYTLLNKAPEYLHRFYGRNSSYVHGGVDASGKPQEAVYGQNDIHHKVLSLNFSECHTKIRHVDAHATLSDGVVVQVMGLLSNSGQPERKFMQTFVLAPEGSVPNKFYVHNDMFRYEDEVFGDSEPELD
# modifications: isoform 2a GST fusion
# B2: δ-2a-N205: GST fusion of truncated G3BP-2a peptide; number is the amino acid at the truncation site (protein, UniProt Q9UN86 1-205, looked up, fragment)
# chain: MVMEKPSPLLVGREFVRQYYTLLNKAPEYLHRFYGRNSSYVHGGVDASGKPQEAVYGQNDIHHKVLSLNFSECHTKIRHVDAHATLSDGVVVQVMGLLSNSGQPERKFMQTFVLAPEGSVPNKFYVHNDMFRYEDEVFGDSEPELDEESEDEVEEEQEERQPSPEPVQENANSGYYEAHPVTNGIEEPLEESSHEPEPEPESETK
# modifications: isoform 2a GST fusion
# notes: GST fusion of truncated G3BP-2a peptide; number is the amino acid at the truncation site
# B3: δ-2a-N257: GST fusion of truncated G3BP-2a peptide; number is the amino acid at the truncation site (protein, UniProt Q9UN86 1-257, looked up, fragment)
# chain: MVMEKPSPLLVGREFVRQYYTLLNKAPEYLHRFYGRNSSYVHGGVDASGKPQEAVYGQNDIHHKVLSLNFSECHTKIRHVDAHATLSDGVVVQVMGLLSNSGQPERKFMQTFVLAPEGSVPNKFYVHNDMFRYEDEVFGDSEPELDEESEDEVEEEQEERQPSPEPVQENANSGYYEAHPVTNGIEEPLEESSHEPEPEPESETKTEELKPQVEEKNLEELEEKSTTPPPAEPVSLPQEPPKAFSWASVTSKNLPPS
# modifications: isoform 2a GST fusion
# notes: as for B2
# B4: δ-2a-N329: GST fusion of truncated G3BP-2a peptide; number is the amino acid at the truncation site (protein, UniProt Q9UN86 1-329, looked up, fragment)
# chain: MVMEKPSPLLVGREFVRQYYTLLNKAPEYLHRFYGRNSSYVHGGVDASGKPQEAVYGQNDIHHKVLSLNFSECHTKIRHVDAHATLSDGVVVQVMGLLSNSGQPERKFMQTFVLAPEGSVPNKFYVHNDMFRYEDEVFGDSEPELDEESEDEVEEEQEERQPSPEPVQENANSGYYEAHPVTNGIEEPLEESSHEPEPEPESETKTEELKPQVEEKNLEELEEKSTTPPPAEPVSLPQEPPKAFSWASVTSKNLPPSGTVSSSGIPPHVKAPVSQPRVEAKPEVQSQPPRVREQRPRERPGFPPRGPRPGRGDMEQNDSDNRRIIRYPD
# modifications: isoform 2a GST fusion
# notes: as for B2
# B5: full length G3BP-2a: full length G3BP-2a expressed as GST-fusion protein (protein)
# chain: MVMEKPSPLLVGREFVRQYYTLLNKAPEYLHRFYGRNSSYVHGGVDASGKPQEAVYGQNDIHHKVLSLNFSECHTKIRHVDAHATLSDGVVVQVMGLLSNSGQPERKFMQTFVLAPEGSVPNKFYVHNDMFRYEDEVFGDSEPELDEESEDEVEEEQEERQPSPEPVQENANSGYYEAHPVTNGIEEPLEESSHEPEPEPESETKTEELKPQVEEKNLEELEEKSTTPPPAEPVSLPQEPPKAFSWASVTSKNLPPSGTVSSSGIPSHVKAPVSQPRVEAKPEVQSQPPRVREQRPRERPGFPPRGPRPGRGDMEQNDSDNRRIIRYPDSHQLFVGNLPHDIDENELKEFFMSFGNVVELRINTKGVGGKLPNFGFVVFDDSEPVQRILIAKPIMFRGEVRLNVEEKKTRAARERETRGGGDDRRDIRRNDRGPGGPRGIVGGGMMRDRDGRGPPPRGGMAQKLGSGRGTGQMEGRFTGQRR
# modifications: left off: a dimerising Fc or GST
# notes: full length G3BP-2a expressed as GST-fusion protein
# B6: Peptide 1 of G3BP-2 (KLPNFGFVV) (peptide)
# peptide: KLPNFGFVV
# B7: Peptide 2 of G3BP-2 (IMFRGEVRL) (peptide)
# peptide: IMFRGEVRL
# Target: T2, HLA-A*0201 molecule (Homo sapiens, UniProt P04439, D140Y/D185E/D98H/E176V/E277Q/G131W/G231S/I119V/I121R/I166T/I218V/L300P/L318F/N151K/N90K/P208A/P217A/Q86G/Q94H/R138H/R169H/T345S)
# T2 construct: endogenous in cells; host or cells: T2 cells
# Assay: MHC/peptide binding assay (T2 binding assay)
# Conditions: reference influenza MP 58-66 peptide
row,Molecule,binding to the HLA-A*0201 molecule
1,IMFRGEVRL (human) [Peptide 2],affinity equal to that of the control influenza MP 58-66 peptide
2,KLPNFGFVV (Human) [Peptide 1],affinity equal to that of the control influenza MP 58-66 peptide

# System: peripheral blood mononuclear cells (PBMC) from healthy individuals
# Assay: CTL responses induced by DC in PBMC, tested in IFN-γ ELISPOT
# Format: cell-based
# Conditions: after one (and two) round of stimulation, 2 separate donors
# Method: The various peptides were evaluated for the generation of CTL responses induced by DC in peripheral blood mononuclear cells (PBMC) from healthy individuals and tested in ELISPOT (Gonzalez et al, 2000). T2 cells (target) pulsed with Peptide 1 or no peptide were labelled with ^51Cr and incubated with clone IH7 (effector) at various ratios. After 4 hours, ^51Cr released from lysed cells was measured and the percentage of specific lysis calculated with the formula: 100×(experimental release−spontaneous release)/(total release−spontaneous release). Total release was obtained with detergent lysis of labelled target.
# Confirming this finding, we generated Peptide 1 specific CTL clones capable of identifying peptide-loaded targets in a classical chromium release assay (FIG. 11), the desired profile for an efficient anti-tumor response (Lopez and Hart, 2002), incorporated herein by reference. These clones will be instrumental in the evaluation of the expression of this antigen in cancer cells, allowing the formal evaluation of this molecule as a TAA.
row,Molecule,CTL responses: IFN-γ producing peptide specific CD8+ lymphocytes
1,KLPNFGFVV (Human) [Peptide 1],Strong responses

# Target: T1, His-tagged N-terminal SH3 domain containing region of rasGAP^120
# Assay: bead binding assay of GST-G3BP peptides with Western detection by anti-His antibody
# Conditions: GST fusions bound to glutathione beads
# Source text: However, the region within the G3BPs responsible for the observed interaction with rasGAP^120 has not been thoroughly investigated. Initially it was presumed that the interactions would be facilitated through proline rich motifs that are known to interact with SH3 domains (Lee et al. 1996). To further map the interactions between G3BPs and the SH3 domain of rasGAP^120 several GST-G3BP peptide fusions were expressed (FIG. 4) and probed in bead binding assays with His-tagged N-terminal rasGAP^120 peptides. The G3BP peptide constructs were designed to represent truncated proteins containing single or multiple domains as well as peptides that would contain isolated proline rich motifs (FIG. 4). In the assays GST-G3BP peptides are bound to glutathione beads and His-tagged N-terminal rasGAP^120 is added to the different constructs. Specific protein-protein interactions between the G3BP peptides and the SH3 domain of rasGAP^120 are detected by running the bound proteins on a Western blot and identifying His-tagged rasGAP^120 by probing with an anti-His antibody. […] No interactions were detected with the other domains of G3BP including the Acid-Rich domain, the RRM or the RGG-rich domain (FIG. 4).
# Truncated cDNAs representing either N-terminal or C-Terminal sequences of G3BP-1 and G3BP-2a (FIG. 2) were subcloned into bacterial GST-fusion expression vectors (pGex, Pharmacia) so that the recombinant fusion proteins could be expressed and used in bead binding assays (see below) to identify the sub-domains of G3BP that interact with the SH3 domain of rasGAP^120. The vectors containing the recombinant fusion protein construct were transformed into competent DH5′ E. Coli and expressed by IPTG induction. To collect the recombinant proteins the cells were washed and resuspended in PBS and sonicated to release the fusion proteins.
# The N-terminal domain of rasGAP^120 (kindly provided by Prof. I.G. Macara, University of Virginia) containing amino acids 1-356 which includes the full SH3 domain of rasGAP^120 was subcloned into proEX HT bacterial expression vector (Life Technologies) and expressed as described above.
# Glutathione columns (Pharmacia) were blocked overnight at 4° C. in 1× binding buffer A (50 mM HEPES pH 7.4, 100 mM NaCl, 5 mM MgCl2, 50 mg/ml BSA, 1 mM DTT, 1 mM PMFS and protease inhibitors (Protease inhibitor cocktail, Roche Diagnostics, Australia). The following day the columns were washed twice with binding buffer A. Bacterial lysates containing either expressed GST alone or GST fusion proteins were diluted 1:1 with 2× binding buffer A and added to the equilibrated GST columns, the columns were gently rocked overnight at 4° C. To remove excess proteins the columns were washed twice in 1× binding buffer A. Bacterial lysates containing the His-tagged N-terminal of rasGAP^120 protein were combined with an equal volume of 2× binding buffer A containing 200 mg/ml BSA and 0.1% Tween. In addition to the high concentration of BSA, which is used to block non-specific protein-protein interactions, Ethidium bromide was added to a final concentration of 25 ng/ml to abrogate non-specific interactions caused by excess bacterial genomic DNA and bacterial RNA. This mix was then added to the pre-bound GST columns (above) and allowed to bind for 2 hrs at 4° C. The columns were then washed three times with binding buffer B (50 mM HEPES pH 7.4, 200 mM NaCl, 5 mM MgCl2, 1 mM DTT, 1 mM PMFS and protease inhibitors).
# One μl of the GST beads complexed with proteins, as described above, was added to an equal volume of 2×PAGE loading dye, heated for 5 mins at 95° C. and loaded onto a 7.5% Polyacrylamide gel and run at 100V for 3 hours. The proteins were transferred to Nitrocellulose and probed with anti-His antibodies (Tetra-His antibody, Qiagen). Columns, which were bound with GST alone, were used as negative controls to ensure no non-specific His-tagged N-terminal rasGAP^120 remained associated with the columns. […]
row,Molecule,interaction with the N-terminal SH3 domain containing region of rasGAP^120
1,full length G3BP-1: full length G3BP-1 expressed as GST-fusion protein,interact
2,δ-1-N229: GST fusion of truncated G3BP-1 peptide; number is the amino acid at the truncation site,interact
3,δ-1-N309: GST fusion of truncated G3BP-1 peptide; number is the amino acid at the truncation site,interact
4,B1,interacted
5,B2,interacted
6,B3,interacted
7,B4,interacted
8,B5,interacted

# Target: T3, HLA-A*0201 molecule on T2 cells
# T3 construct: whole, on cells
# Assay: T2 binding assay, HLA expression by flow cytometry
# Conditions: not given
row,Molecule,binding result
1,B6,binds
2,B7,binds
